Data taken from patent US20100040631A1 (NEW YORK BLOOD CENTER, published 2010).

Biological target: T1, N46 (HIV-1)
T1 construct: Synthetic peptide from the gp41 N-terminal heptad repeat; Used at 8 uM in CD and 0.5 uM in the ELISA; also called NHR-peptide N46
Test: competition ELISA: inhibition of six-helix bundle formation between N46 and C34-biotin (competitor), detected with mAb NC-1

## WQEWEQKITALLEQAQIQQEKNEYELQKLDKWASLWEWF (39-mer hybrid polypeptide) [T-1249]
  EC50: 800 nM
